Experimental data taken from a protein production outcome set (Wang et al. 2014).

Experiment: label from the status in PepcDB records

Row | Sequence | protein production
1 | MRPVGSKYLLEEPLGRGATGTVWRARQRETAGAEAAVAGQPGETVAIKVLKEELASDADIVMRFLRERSVLLRLTHPNIVRVRDLVVEGELLALVMDLIDGPDLHRYLRENGPLTPVAAALLTAQIADALAASHADGVVHRDLKPANVLLKQTGGEMHPMLTDFGIARLADSPGLTRTHEFVGTPAYVAPESAEGRPQTSAVDVYGAGILLYELVTGRPPFGGGSALEVLHQHLSAEPRRPSTVPDPLWTVIERCLRKNPDDRPSAENLARGLRVVAEGIGVHANSAQIGAAENVGALLAPDPAPAQVPGAPDAAYDPNGATSVLPHTSGPAGAADPTAVLPSTGAPDPTAVMPPVPPGQPGAPGQGGPEDPHPWQNQLRAARDRNEQTQVQYLDPNQDPLRRRPQRQVSRPPQQPRQAPQGPPPQQPGYGYPQQQQPQRYATPQPQQPQRYAPPPAPEPQQPRREPRPPRQRSANPMRIPGLGCLKGCLVTVVVLFVAGWLVWELSPLQEWIGTGKGYWDQLTDWFTTVTDWIGDLGGSGGG | failed
2 | MRQFPPASSTVISVNFEELQAFVGRNPMLSLALVGLTIAIIVTEIARLFRGYRALKPAELTRLINSENALVIDLSPTADFEKGHIAGSRNVALAKFDPAGKLLANAKSSPVVVVCRSGNASAGAAKTLKKAGFEQVYWLEGGIAAWQMAELPLVKGRA | failed
3 | MRQHGKVSEVTEKKTAVYVDDQQRILIRQLARSWLWRSELPTWLLIVTVYGGWFACVAGWRTLGLFPATLLLIWFTAWYMSLQHELIHGHPTRLAWFNQLLGTLPLAVWYPYGVYRDSHLAHHRNHLLTHPEDDPESYYVTAESWQRFSAWQRRLIHLRNTFWGRLLLAPMMDIIHTLNSALRAFREGDRRAIAMWSLHLLLLTGLLTWMAAQGFSPLWFVLAVSYPALALTKVRSFLEHRAADDPLARSVINEAGLPWRVLFLNLNYHAVHHDLPGVPWYALRQLYLHRQAAYLQRNQGFLVRGYGEWRRHFSRRAVAVNAHPGFGEQAQAGGEHG | failed
4 | MRQKELETADWQRNLKIAWIGTFFTGASFSIVMPFMALYVEELGVKGAMVEWYAGLSVALSALASALVSPVWGHLADRYGRKPMMIRASMVMTFTMGGLAFVPNVFWMLFLRILNGLFAGYVPNATALIASQAPQQRSGYALGTLSTGLTAGVLIGPLLGGAISEAFGMRGTFLLVGLILFICCLLTIFGLREDFQLIEKVEIMSFSQVFAKIPSKSLLIGLFVTSMIIQISAQSIAPILALYIRYLGQSDNILFYSGLIVSAMGFSSLLSTPYLGRLGDRIGNHRLLLMGLFYSFLLYFLCGFAGSALQLGLLRFAYGFGVGALTPSVNSLLTKMTPKEGISRIFSLNQSFSYIGQVLGPFVGSAVATGLGYRWVFFVTAAIVFGNFVCSLIIFRKSLGVKNIGES | failed
5 | MRQPPILSEALRLFFPLAALHGAVWPFLWIVIGGYALPFANAVPPSQWHAHEMIFGTYGMALAGFLGSAVPEWTDTKAAAGRTLLCLAGLWLPGRLIGFVGADTWSLLAGFFDLAFLLALSVLIGKAMLVRRTTKHLAFLVWLILFAAAETGVRYAWWMGDLEFAVRCLEAALCIFIVLFSLSAARINVVVINLALDPSGETTPYRPHPGRQHMAGAMVTLYMAAKLLFPESDVCAWLALAAGAAFFDRLAEWFIGRAVFRTEVLLLALGNAFAGAGFLALGATRLGFSVTSAAGLHLLSVGALGCAIMAVFIIAGLRHTGRDLKHLPWQAHAAAALMVMAGLTRILPEFDVAAVLSPYHHGLSAILWAASFGIWLQGFLPFMRAPGTDEAGACG | failed
6 | MRQRKDMPHNRLQTGGMTDEPTDIKAEAKPARTSDLRGFIRLLEERGQLRRIRQPVSLVHEITEIHRRVLADGGPALLFEQPVDHEGKVRKMPLLANLFGTRQRIEWGLGLETGGLPALGQKLTELREPRPPKSMAEAWSKLPLLRAALSMRQRNVSRAPVQEKVLTRDAVDLARLPVQWCWPGEPAPLITWPLVITRSPDDPDDINVGIYRMQVLGPDRVIMRWLAHRGGAHHHRLWQARGLDMPVTVAIGADPATILAAVMPLPDHISELGFSGLLRGAKSRIAKALTVPMPVPANAEIVLEGTVSATETAMEGPYGDHTGYYNSVEAFPVMTLSAITMRRDPIYLSTYTGRPPDEPSVLGEAMLEIFLPLVKRQFAEIVDLWMPPEACSYRVMVASIDKRYPGQAKRVMMGLWSMLPQFSYVKLIILVDPDIDVRSWTDVVWALSTRFDASRDTTIINDTPIDYLDFASPKAGLGGKMGLDATRKLPPETEREWGRVLSMTPDVVAKVDLVWRDLGLGERPLEHHHHHH | failed
7 | MRRCCGDLAASRGGCEPASRNLTRTRLTFAALGRINRPAEHDREDAMTRQEARDHEPRDQDAALSRRTLVRGLALGAAATMAGPALAQTGPAAPPTTITTPPRDFGPNGAPTTYFWDPDIIAVDPSFDDLAQPNTAIKRLYTGVLWAEGPAWSAQGRYLLWSDIPNNRQMRWSEDDGRISVFRSPSNNSNGNSFDFQGRQLSCEHLTRRVTRYEHDGTATVLCDNYNGKKLNSPNDVVAHPDGSYWFTDPPYGGQLYEGEPDAAGGPSNSGGKLNPRIGQPAGFTPGKRELPTNCYRIDPSGRVDLVVTEEQVPDPNGLCFSPDFKKLYVVSTGKGPGDSGPGGKGEIFVFDVGADNKLSNQKRFSDCTIDGVKCGPDGVRCDVNGNVWASSNAGRAVGYSGVTVWSPEGKLLGRIRLPEVCGNICFGGPKRNRLFMAASQSLYAVFTATQGAGPG | failed
8 | MRRGSGNPERPSLSRDGLRVPPPCPGKRGPGHFSGYHGGMEGIRRAAQRAAEEFLQAFPMAPGSLFVLGGSTSEVLGERVGTRPSLEAAHAVLEGLLPPLLERGVHVAVQACEHLNRALVVERETARAFGLEEVAVFPHPKAGGALATAAFLRFRDPVMVESLKAQAHGGMDIGGVLIGMHLRPVAVPLRLSVRKIGEAVLLAAKTRPKLVGGARAVYTREEMLKKLEEFLPKPP | not failed
9 | MRRLNRKNNEALKKLNDRQRKVLYCIVREYIENKKPVSSQRVLEVSNIEFSSATIRNDMKKLEYLGYIYQPHTSAGRIPTDKGLRFYYEEMLKISKETSEADLAVETFKSMPLADPEKVLFLAGNLLARLTEGYVLIERPNTRDLKILRVMLIPVSEDYLIFSILTEFGVSKVTPIKTQERLNWEEIERQLNFLLRGRTVGEVLMGKIESLKGSGFLRLIESLIGETVERYLDAGLENLLKDETLTLEDIRNLLEEVKDQKFLESLVGEGITVRIGREIGRKKLEKFAVFSGKYFKGESPIGSVYLFTSKVTKYDRNHRVFEYILNRLSEYFTSTSRR | not failed
10 | MRRSAYMTDTKICKKGCDHDTSHRENEQRCGRGSFWMHDPDLIFSELKLKAGEFFLDMGCGPGDYSIWASKIVGNSGMVYALDKWQELIDNLTEKADLEGIKNIKGMVSDIARPLPIEESCIDVYFISTVLHSLDLAKDSDVIFSEIHRVLKPDGRLAIVECKKEEMSFGPPLHMRLSPEELENLIAKYGFEKINLVDLGYNYMIQFRKSYQK | failed
11 | MRRSGAASRPASRGARTAYIGAMSRSTPPATTRIVCIRHGESTFNAHHEATGRDPGHIDARLSERGHAQVAAARAALRAIPFELVVTSPLTRALQTTAGIFSDHPARPDVLVEVLHRECQESSCDIGRAASVLAQEFPAFKVGHLPETWWYADGEAGPDGWHVEPRTLFDQRVSGFRDWLRARPERTIGVVGHCTFFYHLTGRWLANCEALDVDLTAEPRPRAYG | failed
12 | MRRTNTFAVRPLSDDDERLLLDLLDASASLWNELNYERRQQFFDGESVWDTADYRKQYVGVLGSATAQQVIRKNKSAWQSFFAARENGEDTAPPGYWGNEDDGRELRTFIRHDLYTLDTGERSRVEIPVGQDLKDEYGLGYHDRLRLEVAGDPKWDGEQGRLEIQYGETDDTFRAFQPVTVPDSRQDSPLASHEAALDVGANNLVACTTTTGEQYLYEGRGLFAHFRETTREIARLQSKLREGRYSSQRIRRLYRKRTRRRDHAQDALVRDLMERLYAEGVDTVYVGDLTDVLSTHWCAEVNAKTHQFWAFRAFIERLSHTAEEYGITVEVRSEADTTRTCPACGEQDDTDRDGDVFRCPCGHEAHADLCASRTFLERQTGKPVGSMARPVRLKWDDHNWSEIPHSPERARPNEKRTNQSTDSQDGKLASVGTA | failed
13 | MRRVTVPTAPPAYADIGYPMSMLPIKSSRAVSGIQQKQEVLPGMDTPSNSMRPVADDNIDHTSHTPNGVASAFILEATVNVISGPKVLMKQIPIWLPLGIADQKTYSFDSTTAAIMLASYTITHFGKANNPLVRVNRLGQGIPDHPLRLLRMGNQAFLQEFVLPPVQLPQYFTFDLTALKLVTQPLPAATWTDETPSNLSGALRPGLSFHPKLRPVLLPGKTGKKGHVSDLTAPDKIQTIVNLMQDFKIVPIDPAKSIIGIEVPELLVHKLTGKKMSQKNGQPIIPVLLPKYIGLDPISPGDLTMVITPDYDDCHSPASCSYLSEK | not failed
14 | MRSFLLGGVRPRDFWSMLKNLALRVDGEGAMDIGAWLRDQGLGQYEGTFRQNDIDPEVLRHLTAEDLIGVGVASVGHRRKLLAAIAALREVAEQPSGAAGFGATPVINPEAERRQLTVMFVDLVESTRLSSRLDPEEMGELLRGYQRAVAGAIARFEGHVAKYMGDGVLAYFGYPRAHEDEAERAVRAGLAAIDAVRKLQPPHGETLEARVGIATGLVVVGELIGEGAAREETVIGETPNLAARLQSVAEPGAVVVASATRQLIGGLFDLAELGFHPLKGFAASIPAWRVLGESSAESRFEAFHGASLTPLVGREHDIGLLLKRWEAVKKGKGRVVLLAGEPGIGKSRLVRALRRRLEGEPHTTVSHYCSPYHQTSPLYPVIRLLERAAGFAAEDPPEVKLSKLEALLTQSIEEVADAAPLLAALLSVPADDRYQPLELSPHRQKKRMLEVLVDQLIGLAARQPILAVYEDVHWADPTSLELLDLVVDRVQDSPVLVLITFRTEFLPPWTRYPHVTVLTLSRLSRRQGAEMVDRLTGRRALPTEVLDQIVAKTDGVPLFVEELTRAILETSLLKAEGDHYALARPLSAISIPATLHESLLARLDRLAPAREVMQVAAAIGREFSHELLVTAAPLQASEVEEALEDLIASGLVFRHGTPPQLTYSFKHALVRDAAYATLVRTKRQRLHAAIATAIEQRFPEMVQTQPELLAQHYAEAGRLEPAVNYWLRAGQAEIARSATTEAISHLTRGLELLEGLPDDAARLRKELELQVALSVALMTAKGWAAPEVGRANARARNLCERLGDKSRLFPVLYGDWVFHVVRAELEAGRKAGEELLRRAQEEREVSAEIVGNRIAGTGAFLRGEIANAREYLERSLALYDPQQHRALAFLFAQDPRVAGLSVLSLTLFALGYPEQAQARSNEALADARELSHSNTLGFALLYGCILSQLRGDWREARDRAGSLITLARAQGSPHFLGAGKILQGWTLGQTGELPAASTKVQEGLASWQMTGARFLVPYFLSLLARVETQSAGAKRALDLLTDALQRARETGERWFEAELHRLTGELMLQLPAFDRAEGEARLQHAVELARGQGADLWELRAATSLARLRIGQNRFGDVHHLLAPLCGKFAEGFATTDLQSAQRLLREAAGFDGAIKSSD | failed
15 | MRSLWVFYRTAPDTIVFFDDSPTARFSTVVAFYNHRTGGPMSFAQRDPIGELSLLTHIFIKYREPYVTDGQCRVIVQSKRPIMSSIEQYSQKPFYAHKGTDESSQDTETTEDIVVKEGKHFWIEFDPPEEPFTDTSRRVLRLVRNVEQHRQPGYCTFSKSLFVERNGNDIFKPYRLYPTHNFEDKYFSSAEVKESASLYDLSSLKKNEIRPTLERYEEALKAEVLTPLRNALIPCMVEVYRREIGFESEPDKSLRNASYSSVLSWGSTLRFTLRLWDRIVSGQPLAQVKSEDWFEGTFEKVPSAVSQGARSAIRYYVSDKKLSRDYVLAQALPVYFKWAACREAIQSKLHEQKTDFFAVDTELDKTHVLSGDNVPAKIKKLLEEAAARRKDALSENTIQAYQHAIDHFKSFCERHGPKALPASPETLIAYFEHLAQNGYAESTIRKRRSAIRFLHERSMNESPTTSESVRRYFDDLRKTIPESRGHGQKDPILFHHLHQMSFDEEELSDLRDRAILYIGVATGLRDSGLIGLEMRDIFEKEGGVVYRIRDPKGEGDPGPERVSVPHEVPALTPSPNEALTAWIEAAGIESGAVFRSVDQYGNVGGDDGLSSGSISKDIVKPWMKSIGEDPSEYSCHSLRAGFVTQAILDGITEPRIAAQSRHKSIEALREYERPTNDMKNHMLKEMG | failed
